Assay results as given in PMC6647844.

Target: tetra-methyl rhodamine-labeled Aβ42 (TMR-Aβ) (UniProt P05067)
Experiment: other fluorescence titration

Chain of tetra-methyl rhodamine-labeled Aβ42 (TMR-Aβ) (P05067 672-713): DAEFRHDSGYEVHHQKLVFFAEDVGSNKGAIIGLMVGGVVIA

## granulin-3, fully reduced (rGRN-3) (from UniProt P28799 206-261) (natural protein)
  Kd: 2.55 µM
